This is an account of results in paper PMC9097460, “The molecular basis of spinocerebellar ataxia type 48 caused by a de novo mutation in the ubiquitin ligase CHIP” (The Journal of Biological Chemistry, 2022).

The series concerns the molecule itself. Description: SEC + other: mass photometry; recombinant CHIP run on size-exclusion chromatography, fractions analysed by mass photometry at 30 nM in 20 mM Hepes pH 8, 200 mM NaCl, 1 mM DTT. On the technique in general: SEC sorts molecules by how far they enter the pores of the column.

B1: CHIP A52G point mutant, recombinant (enzyme, human, UniProt Q9UNE7 1-303, looked up)
chain: MKGKEEKEGGARLGAGGGSPEKSPSAQELKEQGNRLFVGRKYPEAAACYGRGITRNPLVAVYYTNRALCYLKMQQHEQALADCRRALELDGQSVKAHFFLGQCQLEMESYDEAIANLQRAYSLAKEQRLNFGDDIPSALRIAKKKRWNSIEERRIHQESELHSYLSRLIAAERERELEECQRNHEGDEDDSHVRAQQACIEAKHDKYMADMDELFSQVDEKRKKRDIPDYLCGKISFELMREPCITPSGITYDRKDIEEHLQRVGHFDPVTRSPLTQEQLIPNLAMKEVIDAFISENGWVEDY
notes: CHIP (STUB1 product) with the patient's de novo A52G mutation (c.155C > G), introduced by QuikChange into the pGEX6p-1 construct; Mutation found in a patient with SCA48; also called A52G mutant; source: E. coli, purified
With B1, the binding result is “binds”.
